The text below walks through data of patent publication US11583589B2, “Cell membrane penetrating conjugates” (priority 2017, dated 2023).

In the experiment the test system is HeLa cells. The experiment is described as follows: Cellular uptake of NHS-coumarin labelled proteins, fluorescence microscopy. Format: cell-based. As for the experimental part:
Labelling of proteins with fluorescent dyes—Fluorescent dyes were considered as an example of a functional molecule for investigating the cell membrane penetration ability of the conjugate. Labelling of the recombinant protein with a dye was carried out by performing a series of reaction in dark conditions. The protein to be labelled was collected in PBS buffer (1× and pH 7.3) and the dye was collected at two to three times higher concentration to that of the protein. The protein was added to 0.1M sodium carbonate buffer (pH 8.5) followed by the dye. The dye was added very slowly (30 μl each time) to the buffer containing the protein kept on ice accompanied by occasional shaking. The resulting solution was wrapped with aluminium foil to keep away any light. The solution was stirred for 1 hour at room temperature and was then purified by gel filtration, i.e. passed through a desalting column or a PD 10 column with 1×PBS buffer. […]
Cellular uptake of labelled proteins—The uptake of labelled proteins was checked by treating mammalian cells with different labelled proteins such as AlbG (SEQ ID NO: 1), EfsQNR (SEQ ID NO: 2) and, as a comparative example, TtCuA (SEQ ID NO: 13). […] The cells were then washed twice, after 3 hours and 24 hours with HBSS (Hanks […] salt solution) or PBS and observed under fluorescence microscopy and/or confocal laser scanning microscope. […]

B1: TtCuA-NHSC: comparative example: TtCuA protein (SEQ ID NO: 13, Thermus thermophilus) labelled with NHS-coumarin dye (conjugate)
chain: AYTLATHTAGVIPAGKLERVDPTTVRQEGPWADPAQAVVQTGPNQYTVYVLAFAFGYQPNPIEVPQGAEIVFKITSPDVIHGFHVEGTNINVEVLPGEVSTVRYTFKRPGEYRIICNQYCGLGHQNMFGTIVVKE
modifications: NHS-coumarin dye label; Amino acid sequence of TtCuA protein
Take B1: where the note is “NHS-C labelled protein, Hoechst Blue co-stain”, the “fluorescence inside the cells (presence of conjugate inside the cells)” value is listed as “significantly less fluorescence”. Moreover, the “cell penetration ability (cell uptake), compared between conjugates” value (NHS-C labelled proteins) is recorded as “not able to effectively penetrate the cell membrane”.
